First the molecules themselves.
T1: hAng2 (Homo sapiens, UniProt O15123)
T1 sequence (O15123 19-496): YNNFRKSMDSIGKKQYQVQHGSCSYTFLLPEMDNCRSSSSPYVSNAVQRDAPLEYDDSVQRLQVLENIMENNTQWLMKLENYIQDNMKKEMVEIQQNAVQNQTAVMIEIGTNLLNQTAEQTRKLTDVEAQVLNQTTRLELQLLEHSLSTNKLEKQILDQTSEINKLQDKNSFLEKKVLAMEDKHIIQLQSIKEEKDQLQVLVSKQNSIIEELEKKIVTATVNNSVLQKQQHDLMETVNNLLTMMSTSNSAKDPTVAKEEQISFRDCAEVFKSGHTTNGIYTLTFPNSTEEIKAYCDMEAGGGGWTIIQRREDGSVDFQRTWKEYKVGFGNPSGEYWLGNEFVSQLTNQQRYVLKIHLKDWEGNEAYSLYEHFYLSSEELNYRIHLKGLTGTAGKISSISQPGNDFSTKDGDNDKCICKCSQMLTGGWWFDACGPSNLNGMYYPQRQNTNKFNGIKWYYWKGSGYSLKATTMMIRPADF

B1: 2C8H11G4: human IgG4 class antibody of 2C8H11 (antibody, V domains shown)
VH: QVQLVQSGAEVKKPGASVKVSCKASGYTFTSYWMHWVRQAPGQGLEWMGMIDPSDSETRLNQKFKDRVTMTRDTSTSTVYMELSSLRSEDTAVYYCARRFYYGSDWYFDVWGQGTLVTVSS
VL: DIQLTQSPSFLSASVGDRVTITCKASQDVGTAVAWYQQKPGKAPKLLIYWASTRHTGVPSRFSGSGSGTEFTLTISSLQPEDFATYYCQQYSSYPLTFGQGTKVEIK
B2: 4B9H11G4: human IgG4 class antibody of 4B9H11 (antibody, V domains shown)
VH: QVQLVESGGGLVKPGGSLRLSCAASGFTFSDYYMYWIRQAPGKGLEWVSTISVGGSFTYYPDSVKGRFTISRDNAKNSLYLQMNSLRAEDTAVYYCARDWGLRPWFVYWGQGTLVTVSS
VL: B1 VL with L4M, F10S, G30S, E70D, Y91H, S92Y, Y94T, L96P
B3: 2C8H53: humanized anti-Ang2 antibody from mouse 2C8; VH SEQ ID NO: 111, VL SEQ ID NO: 112 (antibody, V domains shown)
VH: B1 VH with T28S, R38K, M48I, R67K, V68A, T69S, M70L, R72V
VL: B1 VL with T20S, S60D, T85D, Y87F
modifications: VH; VL
B4: 2C8H43: humanized anti-Ang2 antibody from mouse 2C8; VH SEQ ID NO: 107, VL SEQ ID NO: 108 (antibody, V domains shown)
VH: B1 VH with T28S, R38K, M48I, R67K, V68A, T69S
VL: B1 VL with T20S, S60D, T85D, Y87F
modifications: VH; VL
B5: 2C8H51: humanized anti-Ang2 antibody from mouse 2C8; VH SEQ ID NO: 71, VL SEQ ID NO: 72 (antibody, V domains shown)
VH: B1 VH with T28S, R38K, M48I, R67K, V68A, T69S, M70L, R72V
VL: B1 VL
modifications: VH; VL
B6: 2C8H23: humanized anti-Ang2 antibody from mouse 2C8; VH SEQ ID NO: 99, VL SEQ ID NO: 100 (antibody, V domains shown)
VH: B1 VH with T28S, M48I
VL: B1 VL with T20S, S60D, T85D, Y87F
modifications: VH; VL
B7: 2C8H41: humanized anti-Ang2 antibody from mouse 2C8; VH SEQ ID NO: 67, VL SEQ ID NO: 68 (antibody, V domains shown)
VH: B1 VH with T28S, R38K, M48I, R67K, V68A, T69S
VL: B1 VL
modifications: VH; VL
B8: 2C8H13: humanized anti-Ang2 antibody from mouse 2C8; VH SEQ ID NO: 95, VL SEQ ID NO: 96 (antibody, V domains shown)
VH: B1 VH
VL: B1 VL with T20S, S60D, T85D, Y87F
modifications: VH; VL
B9: 2C8H31: humanized anti-Ang2 antibody from mouse 2C8; VH SEQ ID NO: 63, VL SEQ ID NO: 64 (antibody, V domains shown)
VH: B1 VH with T28S, M48I, R67K, V68A, T69S
VL: B1 VL
modifications: VH; VL
B10: 2C8H12: humanized anti-Ang2 antibody from mouse 2C8; VH SEQ ID NO: 75, VL SEQ ID NO: 76 (antibody, V domains shown)
VH: B1 VH
VL: B1 VL with T20S, S60D
modifications: VH; VL
B11: 2C8H52: humanized anti-Ang2 antibody from mouse 2C8; VH SEQ ID NO: 91, VL SEQ ID NO: 92 (antibody, V domains shown)
VH: B1 VH with T28S, R38K, M48I, R67K, V68A, T69S, M70L, R72V
VL: B1 VL with T20S, S60D
modifications: VH; VL
B12: 2C8H21: humanized anti-Ang2 antibody from mouse 2C8; VH SEQ ID NO: 59, VL SEQ ID NO: 60 (antibody, V domains shown)
VH: B1 VH with T28S, M48I
VL: B1 VL
modifications: VH; VL
B13: 2C8H32: humanized anti-Ang2 antibody from mouse 2C8; VH SEQ ID NO: 83, VL SEQ ID NO: 84 (antibody, V domains shown)
VH: B1 VH with T28S, M48I, R67K, V68A, T69S
VL: B1 VL with T20S, S60D
modifications: VH; VL
B14: 2C8H22: humanized anti-Ang2 antibody from mouse 2C8; VH SEQ ID NO: 79, VL SEQ ID NO: 80 (antibody, V domains shown)
VH: B1 VH with T28S, M48I
VL: B1 VL with T20S, S60D
modifications: VH; VL
B15: 2C8H42: humanized anti-Ang2 antibody from mouse 2C8; VH SEQ ID NO: 87, VL SEQ ID NO: 88 (antibody, V domains shown)
VH: B1 VH with T28S, R38K, M48I, R67K, V68A, T69S
VL: B1 VL with T20S, S60D
modifications: VH; VL
B16: 2C8H33: humanized anti-Ang2 antibody from mouse 2C8; VH SEQ ID NO: 103, VL SEQ ID NO: 104 (antibody, V domains shown)
VH: B1 VH with T28S, M48I, R67K, V68A, T69S
VL: B1 VL with T20S, S60D, T85D, Y87F
modifications: VH; VL

Where a chain is given by its changes, count along the chain named.

One test concerns the target T1, hAng2. As to the kind of experiment: OCTET affinity of humanized anti-Ang2 antibodies against hAng2. It counts as binding. To be noted: IgG4 class antibodies. How it is done:
The affinity of humanized anti-Ang2 antibody against hAng2 was measured using OCTET® system (ForteBio). Specifically, buffer and samples were measured in total 200 μl/well using Black 96-well plates (96 well F-type black plates, Greiner). The biosensor used for affinity measurements was hydrated for 10 min before measurement with AR2G tip (ForteBio OCTET®). After the hydration, humanized anti-Ang2 antibody was diluted in 10 mM sodium acetate, pH 6.0 buffer at a concentration of 10 μg/ml, fixed on AR2G biosensor, and blocked with 1M ethanolamine. The recombinant hAng2 was diluted to 50, 25, 12.5, 6.25, 3.125, and 0 nM with 1× kinetic buffer, and subjected to association for 300 sec and dissociation for 900 sec. For affinity measurement (KD), association rate (K-on) and dissociation rate (K-off) were analyzed by binding curve (global) and fitted to 1:1 binding model using OCTET® data analysis v9.0.0.10 program.
The affinities of humanized 2C8 antibodies to hAng2 were in Table 15.
B1: the “Kdis” value was 4.35e-06 s⁻¹ and the “Kon” value came out at 415000 M⁻¹ s⁻¹.
On the same counts, the results for B2 are 3.46e-05 s⁻¹ and 432000 M⁻¹ s⁻¹.

Still in this test, the particulars now being: IgG4 class antibodies; statement in words.
B1: the “affinities to hAng2 antigen” value is on record as “subnanomolar high affinities”.
Still for that read-out and setting: in the case of B2 it was “subnanomolar high affinities”.

The same test, now with this note: OCTET, antibody fixed on AR2G biosensor, hAng2 50-0 nM, 1:1 binding model.
B3 returned a Kdis of 3.11e-05 s⁻¹ and a Kon of 80900 M⁻¹ s⁻¹.
For B4, in that order: 2.65e-05 s⁻¹ and 71100 M⁻¹ s⁻¹.
On the same counts, the results for B5 are 9.61e-06 s⁻¹ and 70200 M⁻¹ s⁻¹.
For B6, in that order: 2.28e-05 s⁻¹ and 79500 M⁻¹ s⁻¹.
In turn, B7 came in with a Kdis of 1.67e-05 s⁻¹ and a Kon of 67000 M⁻¹ s⁻¹.
On the same counts, the results for B8 are 2.77e-05 s⁻¹ and 113000 M⁻¹ s⁻¹.
Take B9: the Kdis was found to be 2.21e-05 s⁻¹ and the Kon came to 83200 M⁻¹ s⁻¹.
For B10, in that order: 1.33e-05 s⁻¹ and 95200 M⁻¹ s⁻¹.
B11 yielded a Kdis of 1.99e-05 s⁻¹ and a Kon of 81900 M⁻¹ s⁻¹.
As for B12, the Kdis amounted to 1.5e-05 s⁻¹ and the Kon stood at 111000 M⁻¹ s⁻¹.
On to B13, for which the Kdis was found to be 1.49e-05 s⁻¹ and the Kon is 75700 M⁻¹ s⁻¹.
For B14, in that order: 6.84e-06 s⁻¹ and 59600 M⁻¹ s⁻¹.
For B15, in that order: 3.07e-05 s⁻¹ and 80600 M⁻¹ s⁻¹.
As to B16, the Kdis came out at 3.99e-06 s⁻¹ and the Kon came to 89600 M⁻¹ s⁻¹.

Source of the values: patent publication US12331106B2, “Anti-angiopoietin-2 antibodies that induce Tie2 activation” (Institute for Basic Science, priority 2018, dated 2025).
